Eleven molecules from patent publication US11549123B2, “Plant EPSP synthases and methods of use” (PIONEER HI-BRED INTERNATIONAL, INC., priority 2015, dated 2023) can be followed below.

Numbering of substitutions follows the chain as printed. Names and notes keep the numbering of the source.

Data set [1] relates to C=C(OP(=O)(O)O)C(=O)O. The experiment in a line: purified protein, by the assay type. As to conditions: other: substrate saturation; Bacterial EPSPS / CP4.
Substrate in data set [2]: C=C(OP(=O)(O)O)C(=O)O
The experiment in a line: EPSPS substrate saturation kinetics, maize variant 103V 107G. Format: biochemical, Zea mays. As to conditions: other: PEP varied; pH 7.0. As for the experimental part:
(§1) EPSPS activity was determined by quantifying the phosphate generated from the EPSPS reaction. Release of inorganic phosphate was coupled to reaction with 2-amino-6-mercapto-7-methylpurine ribonucleoside, catalyzed by purine-nucleoside phosphorylase (M R Webb, Proc. Natl. Acad. Sci. 89:4884-4887, 1992). The absorbance change that occurs was monitored at 360 nm, where the extinction is 11,200 M^−1 cm^−1, with a Spectramax plate reader (Molecular Devices). To determine kinetic parameters, the varied substrate was present at seven concentrations (the eighth being the blank, containing no substrate) ranging from 4 to 400 uM and the unvaried substrate present at saturation. […] Reactions were monitored with a Spectramax plate reader. […] KI was then calculated from the following form of the Michaelis-Menten equation for competitive inhibition: KI=KM[I]/(KM app−KM) KM approximates the dissociation constant of the enzyme-substrate complex while kcat is the rate of conversion of substrate to product when the substrate concentration is saturating. kcat/KM is a widely accepted parameter for catalytic efficiency when substrate concentration is low (˜KM). […] The parameter kcat/KM×KI is used to quantify both catalytic efficiency and insensitivity and thus the overall fitness of the enzyme. […]

Substrate in data set [3]: C=C(OP(=O)(O)O)C(=O)O
The experiment in a line: EPSPS substrate saturation kinetics, maize variant 103L 107T. It counts as biochemical, Zea mays. The conditions noted are these: other: PEP varied; pH 7.0. As for the experimental part: as §1

Substrate in data set [4]: C=C(OP(=O)(O)O)C(=O)O
Briefly: EPSPS substrate saturation kinetics, maize variant 103L 107A. It counts as biochemical, Zea mays. The conditions noted are these: other: PEP varied; pH 7.0. The procedure: as §1

Substrate in data set [5]: C=C(OP(=O)(O)O)C(=O)O
Briefly: EPSPS substrate saturation kinetics, maize variant 103S 107N. It counts as biochemical, Zea mays. The conditions noted are these: other: PEP varied; pH 7.0. The procedure:
as §1

Substrate in data set [6]: C=C(OP(=O)(O)O)C(=O)O
Briefly: EPSPS substrate saturation kinetics, maize variant 103G 107W (EPSPS-TGPW). Format: biochemical. The conditions noted are these: other: PEP varied; pH 7.0. As for the experimental part: as §1

Substrate in data set [7]: C=C(OP(=O)(O)O)C(=O)O
The experiment in a line: Substrate saturation kinetic analysis with glyphosate, H6-K246G. It counts as biochemical, Zea mays. The conditions noted are these: other: substrate saturation.

For data set [8], the system named is maize EPSPS. Briefly: EPSPS reaction rates at 200 uM PEP and S3P, and at 30 uM substrates with 1 mM glyphosate. It counts as biochemical, Zea mays. As to conditions: Zea ma. The procedure:
as §1

Data set [9] relates to Glycine max (93Y21) hairy root. Briefly: Hairy root growth from transformed soybean cotyledons with or without 25 uM glyphosate. The conditions noted are these: constructs containing the UBQ10 promoter. Format: cell-based.
Substrate in data set [10]: C=C(OP(=O)(O)O)C(=O)O
Briefly: Substrate saturation kinetic analysis with glyphosate, H6-R61Y. It counts as biochemical, Zea mays. As to conditions: other: substrate saturation.

Substrate in data set [11]: C=C(OP(=O)(O)O)C(=O)O
Briefly: Substrate saturation kinetic analysis with glyphosate, H6-A69V. Format: biochemical, Zea mays. The conditions noted are these: other: substrate saturation.

Substrate in data set [12]: C=C(OP(=O)(O)O)C(=O)O
Briefly: Substrate saturation kinetic analysis with glyphosate, H6-D196V. As to conditions: other: substrate saturation. It counts as biochemical, Zea mays.

With “Bacterial EPSPS (CP4) (Agrobacterium sp. CP4)”, in data set [1], the Km was determined as 15.8 µM and the kcat turned out to be 1219 min⁻¹.

B1: Zea mays EPSPS variant V-G at positions 103-107 (Zea mays; P106G/T102V) (protein)
chain: MAGAEEIVLQPIKEISGTVKLPGSKSLSNRILLLAALSEGTTVVDNLLNSEDVHYMLGALRTLGLSVEADKAAKRAVVVGCGGKFPVEDAKEEVQLFLGNAGVAMRGLTAAVTAAGGNATYVLDGVPRMRERPIGDLVVGLKQLGADVDCFLGTDCPPVRVNGIGGLPGGKVKLSGSISSQYLSALLMAAPLALGDVEIEIIDKLISIPYVEMTLRLMERFGVKAEHSDSWDRFYIKGGQKYKSPKNAYVEGDASSASYFLAGAAITGGTVTVEGCGTTSLQGDVKFAEVLEMMGAKVTWTETSVTVTGPPREPFGRKHLKAIDVNMNKMPDVAMTLAVVALFADGPTAIRDVASWRVKETERMVAIRTELTKLGASVEEGPDYCIITPPEKLNVTAIDTYDDHRMAMAFSLAACAEVPVTIRDPGCTRKTFPDYFDVLSTFVKN
As to B1, the Km in [2] came out at 133 µM.

B2: Zea mays EPSPS variant L-T at positions 103-107 (Zea mays; P106T/T102L) (protein)
chain: B1 chain with V103L, G107T
Regarding B2, the Km in data set [3] was 45.8 µM.

B3: Zea mays EPSPS variant L-A at positions 103-107 (Zea mays; P106A/T102L) (protein)
chain: B1 chain with V103L, G107A
B3: in [4], the Km worked out at 50.6 µM.

B4: Zea mays EPSPS variant S-N at positions 103-107 (Zea mays; P106N/T102S) (protein)
chain: B1 chain with V103S, G107N
As for B4, the Km in data set [5] came out at 38.1 µM.

B5: Zea mays EPSPS variant G-W at positions 103-107 (EPSPS-TGPW; T103G P107W) (Zea mays; P106W/T102G) (protein)
chain: B1 chain with V103G, G107W
B5: the Michaelis constant (Km) in data set [6] came out at 82.2 µM.

B6: Zea mays EPSPS variant Zm-H6 (868-H6) with K246G (H6-K246G) (Zea mays; A1R/A3W/A415G/A71Q/D401G/E301S/E390G/G101A/I207L/K245G/K83R/L97C/T278A/T360S/T440Q/V437R) (protein)
chain: MRGWEEIVLQPIKEISGTVKLPGSKSLSNRILLLAALSEGTTVVDNLLNSEDVHYMLGALRTLGLSVEADKQAKRAVVVGCGGRFPVEDAKEEVQLFCGNAATAMRPLTAAVTAAGGNATYVLDGVPRMRERPIGDLVVGLKQLGADVDCFLGTDCPPVRVNGIGGLPGGKVKLSGSISSQYLSALLMAAPLALGDVEIEIIDKLISLPYVEMTLRLMERFGVKAEHSDSWDRFYIKGGQKYKSPGNAYVEGDASSASYFLAGAAITGGTVTVEGCGTASLQGDVKFAEVLEMMGAKVTWTSTSVTVTGPPREPFGRKHLKAIDVNMNKMPDVAMTLAVVALFADGPTAIRDVASWRVKESERMVAIRTELTKLGASVEEGPDYCIITPPGKLNVTAIDTYGDHRMAMAFSLAACGEVPVTIRDPGCTRKTFPDYFDRLSQFVKN
notes: 868-H6 plus K246G; E. coli BL21(DE3), Ni-NTA purified
Turning to B6, in data set [7], the Km was found to be 24.0 µM and the kcat worked out at 210 min⁻¹.

B7: 123-C1: maize EPSPS with A2R, A4W, K84R, L98C, G102A, I208L, K243E, E391P, D402G (protein)
chain: B6 chain with Q72A, K243E, G246K, A279T, S302E, S361T, G391P, G416A, R438V, Q441T
modifications: maize clone 123-C1
notes: maize EPSPS with A2R, A4W, K84R, L98C, G102A, I208L, K243E, E391P, D402G
In the case of B7, in data set [8] (PEP and S3P both at 200 uM, no glyphosate), the “Reaction rate, 200 uM, no glyph” value was found to be 516. In addition, the “Reaction rate, 30 uM, 1 mM glyph” value in data set [8] (substrates at 30 uM, glyphosate at 1 mM) came to 94.5. Further, the “hairy root growth in the presence of 25 uM glyphosate” value in [9] is “generated hairy roots”.

B8: Zea mays EPSPS variant Zm-H6 (868-H6) with R61Y (H6-R61Y) (Zea mays; A1R/A3W/A415G/A71Q/D401G/E301S/E390G/G101A/I207L/K83R/L97C/R60Y/T278A/T360S/T440Q/V437R) (protein)
chain: B6 chain with R61Y, G246K
notes: 868-H6 plus R61Y; E. coli BL21(DE3), Ni-NTA purified
Turning to B8, in [10], the Km was determined as 23.6 µM and the kcat worked out at 125 min⁻¹.

B9: Zea mays EPSPS variant Zm-H6 (868-H6) with A69V (H6-A69V) (Zea mays; A1R/A3W/A415G/A68V/A71Q/D401G/E301S/E390G/G101A/I207L/K83R/L97C/T278A/T360S/T440Q/V437R) (protein)
chain: B6 chain with A69V, G246K
Regarding B9, in data set [11], the Km came out at 21.1 µM and the kcat amounted to 161 min⁻¹.

B10: Zea mays EPSPS variant Zm-H6 (868-H6) with D196V (H6-D196V) (Zea mays; A1R/A3W/A415G/A71Q/D195V/D401G/E301S/E390G/G101A/I207L/K83R/L97C/T278A/T360S/T440Q/V437R) (protein)
chain: B6 chain with D196V, G246K
notes: shuffled variant 868-H6 plus D196V; E. coli BL21(DE3), Ni-NTA purified
In the case of B10, in [12], the Km was 61.8 µM and the kcat was 164 min⁻¹.
